Laboratory results as given in patent publication US11034736B2, “Anti-viral cnidarins” (priority 2014, dated 2021).

Experiments:
Macrophage = assay: Cell viability of monocyte/macrophage cultures (CellTiter formazan dye reduction); assay type: cell-based, human; conditions: macrophages
Text: (§1) To test the anti-HIV activity of CNID1 against HIV primary isolates in fresh human cells, monocyte-tropic HIV-1 strain Ba-L was obtained from the NIAID AIDS Research and Reference Reagent Program (National Institutes of Health, Bethesda, Md.). The low passage HIV-1 pediatric isolate ROJO was derived as described previously (Buckheit et al., AIDS Res. Hum. Retroviruses, 10: 1497-1506 (1994)). Human peripheral blood mononuclear cells (PBMCs) and macrophages were isolated from hepatitis and HIV seronegative donors following Ficoll-Paque centrifugation as described elsewhere (Gartner & Popovic, Techniques in HIV Research, Aldovini, A. and Walker B., eds., pp. 59-63, Stockton Press, New York, 1990). Antiviral assays were carried out with 3-day-old phytohaemagglutinin/interleukin-2 stimulated PBMCs or 6-day-cultured monocyte/macrophages. […] HIV-1 replication in PBMC (ROJO) or monocyte macrophage (Ba-L) cultures were determined by measurement of reverse transcriptase activity (Buckheit et al., Antiviral Res., 21: 247-265 (1993)) in the supernatants or p24 antigen expression by ELISA (Coulter, Hialeah, Fla.), respectively. Cell viability by formazan dye reduction was determined in replicated cultures using the CellTiter reagent (Promega, Madison, Wis.). […]

HIV-1IIIB = assay: Viral attachment assay, cell-associated p24 antigen in HeLa CD4 LTR β-gal cells; assay type: cell-based
Protocol: Attachment and fusion assays were performed in HeLa-CD4-LTR-β-galactosidase cell lines as described previously (Gartner & Popovic, (1990), supra) with the following modifications. Following the interaction of HIV-1IIIIIB with HeLa CD4 LTR β-gal cells, viral attachment to HeLa CD4 LTR β-gal cells was detected as cell-associated p24 antigen following a 1 hour adsorption of virus and vigorous washing for removal of unbound virus. Fusion of HIV-1IIIIB with HeLa CD4 LTR β-gal cells was detected by chemiluminescence using a single-step lysis and detection method (Tropix Gal-screen, Bedford, Mass.) and results reported as EC50 values. Chicago Sky Blue, a polysulfonic acid dye inhibitor of HIV attachment and fusion, was used as a positive control for all assays (Clanton et al., J. Acquired Immune Defic. Syndr., 5: 771-781 (1992)).

HIV-1ROJO = assay: HIV-1 ROJO replication in human PBMC cultures, supernatant reverse transcriptase activity; assay type: cell-based; conditions: T-tropic primary isolate
Text: as §1

human PBMCs = assay: Toxicity in PHA-stimulated human PBMCs, XTT cell viability; conditions: human PBMCs, XTT, 7 days
Protocol: The cultures were incubated for 7 days at 37° C./5% CO2. Efficacy of the compounds was evaluated by measuring the amount of reverse transcriptase in the culture supernatant and toxicity was evaluated using XTT to measure cell viability. AZT was evaluated in parallel as an assay control.

B1: CNID-1: HIV-inhibitory protein from soft coral Synthecium sp.; 172 amino acids, 18,122 Da, SEQ ID NO: 1 (protein)
chain: GRATLGQLKTSTIPPVTFDVPFDGANIPQDVRFTIATVNGGKGALYNAELGESAGHTIVLESDGDHPIPGTFDPKSGRGLDYLPRGLVLFSSHNYVGNMKMYTEPDSDITADFPPGTPFGVSSAITGEGSAFQLNTGIDHTGEFEIIPPNTKRNLAGVFDNEIRSVSPTGGK
CC50 (Macrophage): 3.56 nM
Inhibition of viral attachment to the cell (HIV-1IIIB): did not inhibit attachment
EC50 (HIV-1IIIB; read-out: Inhibition of Attachment EC50): > 55.2 nM
EC50 (HIV-1ROJO): 3.97 nM
TC50 (human PBMCs): >0.5 µg/mL
